The values that follow come from patent US10106582B2, “Complex-formation-modulating agents and uses therefor” (Factor Therapeutics Limited, priority 2012, dated 2018).

Assay [1] deals with T1, IGF-II (Homo sapiens, UniProt P01344).
T1 construct: purchased GroPep
The assay can be described thus: VN-peptide array: binding of IGF-II to immobilized overlapping 16-mer VN peptides. Particulars: relative spot intensity on VN-peptide array after IGF-II incubation, vs average intensity of negative controls (TotalLab). An excerpt:
(§1) The inventors designed small-molecule VN-peptides that could potentially disrupt the formation of the IGF-I:IGFBP:VN trimeric or the IGF-II:VN dimeric complexes by binding to the IGFBPs and/or IGF-II and preventing their association with VN within the complex. To design peptides, the binding sites of IGFBP-3/-5 and IGF-II on VN were first determined using VN-peptide arrays. The entire VN protein sequence, excluding the signal peptide (residues 1-19), was divided into overlapping 16-mer peptides with 3AA frameshift/offset (for peptide sequences refer to Table 6) and immobilized onto cellulose membranes (peptide spotting was outsourced to PepMetric Technologies Inc). For a schematic of the arrangement of VN peptides and controls refer to FIG. 2. The resultant peptide arrays were incubated either with IGFBP-3, IGFBP-5 or IGF-II ligands, probed with the respective antibodies, the membranes developed using ECL, and imaged using the ChemiDoc™ XRS system (BioRad). The spots on the membrane were analysed using TotalLab array quantification software (TotalLab Ltd, Newcastle, England) identifying positive peptide spots by comparing each spot to the combined intensities of the negative controls.
(§2) The entire VN protein sequence, excluding the signal peptide (residues 1-19), was divided into overlapping 16-mer peptides with 3 amino acid (AA) frameshift/offset. This yielded 148 overlapping peptides covering the entire VN sequence (residues 20-478) (Table 6) with a resolution of 3 AA. Peptide synthesis and spotting onto a cellulose membrane were outsourced to PepMetric Technologies Inc. (Richmond, BC, Canada). For a diagrammatic illustration of the strategy used to divide an example amino acid sequence into peptides and to spot them onto the membrane, please refer to http://www.pepmetric.com/html/Pep-Overlap.html. The VN-overlapping peptides were generated using FMOC (9-fluorenylmethoxycarbonyl) Solid-Phase SPOT synthesis onto PEG-grafted amine-functionalized cellulose membrane (Whatman® 540 filter paper). The peptides were spotted onto the cellulose membrane in a 10×16 grid with each peptide being 10˜50 nM in concentration with >70% purity. Finally, these membranes were acetylated in order to cap the free ends of the spotted peptides preventing them from degradation during shipping and storage.
(§3) Along with the VN-peptides these membranes were also spotted with a positive control (i.e., universal binding peptides tested by the manufacturer to be positive for antibodies from goat, mouse, rat and chicken) and a negative control (ie. non-binding peptides as well as BSA) controls. For a schematic of the arrangement of VN-peptides and controls refer to FIG. 2 and for the sequence of each peptide corresponding to the grid number refer to Table 6. Four such replicate membranes were prepared and stored at room temperature in a clip sealed plastic bag. Long-term storage was at −20° C.
(§4) Methanol or ethanol was used to enhance the rehydration of peptide spots that might be hydrophobic. The peptides spotted onto the membranes were activated by incubating in 3 mL of 70% ethanol for five mins. The membranes were subsequently washed three times, 10 minutes each, in 10 mL TBS (Tris Buffered Saline; 8 g NaCl, 0.2 g KCl and 6.1 g Tris Base into 1000 mL of milliQ water, pH 7) with gentle rocking. Membrane blocking was performed by incubating in 10 mL casein-based membrane blocking buffer (MBS; Sigma-Aldrich) overnight at 4° C. The following day, the membranes were washed twice, 10 minutes each, in 10 mL TBS-T (TBS+0.05% Tween-20; pH 7).
(§5) Ligands used to test binding to VN-peptides were IGFBP-3, IGFBP-5 and IGF-II. For ligand binding, four separate solutions of 1 μg/mL ligand in 10 mL MBS buffer were prepared and each membrane was incubated in one of the four ligand solutions overnight at 4° C., with gentle rocking. […] The following day, the membranes were washed three times, 10 minutes each, in 10 mL TBS-T. […]

In assay [2] the target is T2, IGFBP-3 (Homo sapiens, UniProt P17936).
T2 construct: purchased GroPep
T2 sequence (P17936 28-291): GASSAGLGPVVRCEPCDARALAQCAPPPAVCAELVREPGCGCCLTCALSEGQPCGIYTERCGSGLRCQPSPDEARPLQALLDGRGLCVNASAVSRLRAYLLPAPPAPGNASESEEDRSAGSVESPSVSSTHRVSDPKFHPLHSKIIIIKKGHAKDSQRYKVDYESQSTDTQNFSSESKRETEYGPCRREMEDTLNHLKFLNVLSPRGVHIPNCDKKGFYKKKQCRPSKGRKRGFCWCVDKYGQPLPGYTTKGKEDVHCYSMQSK
The assay can be described thus: VN-peptide array: binding of IGFBP-3 to immobilized overlapping 16-mer VN peptides. The settings on record: relative spot intensity on VN-peptide array after IGFBP-3 incubation, vs average intensity of negative controls (TotalLab).
Text: as §1, §2, §3, §4, §5

Where no end group is shown, it is not given here.

T1 sequence (P01344 25-91 limits assumed): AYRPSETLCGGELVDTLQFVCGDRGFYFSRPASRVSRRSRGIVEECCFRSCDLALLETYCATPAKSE

On to “DELCSYYQSCCTDYTA (not fully specified (N-terminus); cysteine pairing not given here) [Peptide 1B]”, for which, in assay [1], the “Intensity (against −ve control), IGFII” value is 12-IGFII fold-change.
Turning to “DSWEDIFELLFWGRTS (not fully specified (N-terminus)) [Peptide 5D]”, the “Intensity (against −ve control), BP3” value in assay [2] is listed as 2.5-BP3 fold-change.
As to “FAMMQRDSWEDIFELL (not fully specified (N-terminus)) [Peptide 5B]”, the “Intensity (against −ve control), BP3” value in assay [2] is given as 4.5-BP3 fold-change.
Same read-out and setting: to “FEHFAMMQRDSWEDIF (not fully specified (N-terminus)) [Peptide 5A]” belongs 1.5-BP3 fold-change; to “KGKQYWEYQFQHQPSQ (not fully specified (N-terminus)) [Peptide 4A]”, 6-BP3 fold-change.
Regarding “LFSSEESNLGANNYDD (not fully specified (N-terminus)) [Peptide 7A]”, the “Intensity (against −ve control), IGFII” value in assay [1] is 17-IGF-II fold-change.
As to “MQRDSWEDIFELLFWG (not fully specified (N-terminus)) [Peptide 5C]”, the “Intensity (against −ve control), BP3” value in assay [2] is given as 4.5-BP3 fold-change.
Take “QYWEYQFQHQPSQEEC (not fully specified (N-terminus)) [Peptide 4B]”: the “Intensity (against −ve control), BP3” value in assay [2] is given as 12-BP3 fold-change.
With “SEESNLGANNYDDYRM (not fully specified (N-terminus)) [Peptide 7B]”, the “Intensity (against −ve control), IGFII” value in assay [1] is recorded as 18-IGF-II fold-change.
“SNLGANNYDDYRMDWL (not fully specified (N-terminus)) [Peptide 7C]”: the “Intensity (against −ve control), IGFII” value in assay [1] is on record as 12-IGF-II fold-change.
Consider “TRQPQFISRDWHGVPG (not fully specified (N-terminus)) [Peptide 6C]”, for which the “Intensity (against −ve control), IGFII” value in assay [1] is 1.5-IGFII fold-change.
